Laboratory results reported in patent US20220145332.

System: hsSB (high-solubility Sleeping Beauty transposase, recombinant) (artificial)
Experiment: cell_activity
Settings: HeLa, 3 weeks

| Substance | activity (% Venus-positive cells) (hsSB added to culture medium, up to 3.31% in iPSCs (FIG. 9)) | activity (% Venus-positive cells) (protein electroporation, 20 ug hsSB, maximum efficiency, also active in CHO and mESC) |
| --- | --- | --- |
| Venus transposon minicircle (SB LE/RE ends) | < 12 |  |
| Venus transposon plasmid (SB LE/RE ends) |  | 42 |
